This is an account of results in patent publication US6998260.

recombinant human β-II tryptase (from pPIC9-HumTryN102K, expressed in Pichia pastoris), sequence (chain, as listed by the source): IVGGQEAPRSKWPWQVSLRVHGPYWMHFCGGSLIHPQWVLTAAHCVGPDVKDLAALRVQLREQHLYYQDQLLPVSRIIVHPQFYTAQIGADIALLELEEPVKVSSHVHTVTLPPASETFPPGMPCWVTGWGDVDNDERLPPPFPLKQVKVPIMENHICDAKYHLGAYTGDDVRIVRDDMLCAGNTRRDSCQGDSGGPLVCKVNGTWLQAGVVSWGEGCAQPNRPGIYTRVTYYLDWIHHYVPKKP
recombinant human β-I tryptase (from pPIC9-HumTry, expressed in Pichia pastoris), sequence (chain, as listed by the source): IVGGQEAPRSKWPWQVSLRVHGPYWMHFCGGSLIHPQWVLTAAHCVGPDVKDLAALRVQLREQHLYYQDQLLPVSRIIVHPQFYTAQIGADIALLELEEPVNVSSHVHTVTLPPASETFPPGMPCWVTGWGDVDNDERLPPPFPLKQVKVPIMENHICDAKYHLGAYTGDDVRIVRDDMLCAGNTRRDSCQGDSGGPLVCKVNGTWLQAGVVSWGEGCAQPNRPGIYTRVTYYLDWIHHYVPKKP

In the series the target is human fibrinogen (UniProt P02671).
human fibrinogen, sequence (P02671 20-629, chain 1 of 3): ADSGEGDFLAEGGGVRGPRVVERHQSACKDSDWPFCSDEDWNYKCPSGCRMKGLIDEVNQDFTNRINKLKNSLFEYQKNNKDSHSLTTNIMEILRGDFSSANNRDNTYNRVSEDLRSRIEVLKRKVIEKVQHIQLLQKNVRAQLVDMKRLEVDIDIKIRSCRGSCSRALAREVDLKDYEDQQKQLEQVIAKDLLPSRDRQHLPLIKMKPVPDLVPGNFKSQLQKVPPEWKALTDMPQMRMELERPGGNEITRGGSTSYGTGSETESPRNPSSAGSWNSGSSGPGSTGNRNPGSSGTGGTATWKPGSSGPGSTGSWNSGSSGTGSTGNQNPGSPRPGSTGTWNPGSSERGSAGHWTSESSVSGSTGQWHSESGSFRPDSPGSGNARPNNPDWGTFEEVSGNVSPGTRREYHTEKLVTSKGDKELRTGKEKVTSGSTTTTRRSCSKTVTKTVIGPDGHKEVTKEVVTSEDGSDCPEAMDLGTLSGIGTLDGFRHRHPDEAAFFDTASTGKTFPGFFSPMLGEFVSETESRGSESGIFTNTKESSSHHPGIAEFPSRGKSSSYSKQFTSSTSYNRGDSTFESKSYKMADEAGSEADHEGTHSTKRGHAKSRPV
human fibrinogen, sequence (chain, as listed by the source, chain 2 of 3): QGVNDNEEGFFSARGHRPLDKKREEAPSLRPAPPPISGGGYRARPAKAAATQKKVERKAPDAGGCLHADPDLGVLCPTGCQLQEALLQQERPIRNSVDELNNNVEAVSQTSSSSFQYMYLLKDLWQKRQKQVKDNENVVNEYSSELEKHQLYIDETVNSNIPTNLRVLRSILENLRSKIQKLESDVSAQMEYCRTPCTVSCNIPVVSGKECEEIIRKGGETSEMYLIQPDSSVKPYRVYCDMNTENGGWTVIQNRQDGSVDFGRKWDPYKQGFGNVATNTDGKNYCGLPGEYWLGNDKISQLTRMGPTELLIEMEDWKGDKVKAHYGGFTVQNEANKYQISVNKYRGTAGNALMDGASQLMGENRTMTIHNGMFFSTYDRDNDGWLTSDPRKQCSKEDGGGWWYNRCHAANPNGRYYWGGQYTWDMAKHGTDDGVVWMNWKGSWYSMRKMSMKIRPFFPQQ
human fibrinogen, sequence (chain, as listed by the source, chain 3 of 3): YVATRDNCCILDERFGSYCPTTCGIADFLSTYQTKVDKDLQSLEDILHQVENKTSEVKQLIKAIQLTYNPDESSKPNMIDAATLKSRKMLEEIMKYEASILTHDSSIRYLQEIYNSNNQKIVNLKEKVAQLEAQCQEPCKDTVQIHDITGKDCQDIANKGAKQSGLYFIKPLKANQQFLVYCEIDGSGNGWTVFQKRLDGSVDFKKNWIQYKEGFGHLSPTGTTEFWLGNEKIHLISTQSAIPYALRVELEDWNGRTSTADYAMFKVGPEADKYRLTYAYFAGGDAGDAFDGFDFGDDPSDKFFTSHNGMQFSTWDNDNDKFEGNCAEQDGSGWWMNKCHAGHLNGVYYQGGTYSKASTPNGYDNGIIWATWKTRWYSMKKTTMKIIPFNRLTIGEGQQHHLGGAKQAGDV
For “β-tryptase isolated from a cadaver (native β)”, the “fibrinogen cleavage (SDS-PAGE of fibrinogen subunits after 60 min incubation)” value is “Native β-tryptase was less efficient at fibrinogeneolysis”.
Consider “recombinant human β-II tryptase (from pPIC9-HumTryN102K, expressed in Pichia pastoris)”, for which the “fibrinogen cleavage (SDS-PAGE of fibrinogen subunits after 60 min incubation)” value is “The a and β subunits were efficiently hydrolyzed by the recombinant β-I and β-II tryptase enzymes even during cold incubation”.
With “recombinant human β-I tryptase (from pPIC9-HumTry, expressed in Pichia pastoris)” the entry was “The a and β subunits were efficiently hydrolyzed by the recombinant β-I and β-II tryptase enzymes even during cold incubation”.
